Test results from US20240368668A1, “SUBSTRATES AND BIOMARKERS OF ADAMTS7” (The Broad Institute, Inc., priority 2021, published 2024).
Square brackets hold non-standard residues; d marks the D form. Ends that are not written are not given here.

Target: T1, mouse ADAMTS7 (Mus musculus, UniProt Q68SA9)
T1 construct: Full-length mouse Adamts7 1-1857 (Uniprot Q68SA9, WT or E373Q catalytic mutant); expressed in transfected cells; host or cells: Human Coronary Artery Smooth Muscle Cells (HCA-SMC, Lonza), adenovirus 50 MOI
T1 sequence (Q68SA9 221-1657): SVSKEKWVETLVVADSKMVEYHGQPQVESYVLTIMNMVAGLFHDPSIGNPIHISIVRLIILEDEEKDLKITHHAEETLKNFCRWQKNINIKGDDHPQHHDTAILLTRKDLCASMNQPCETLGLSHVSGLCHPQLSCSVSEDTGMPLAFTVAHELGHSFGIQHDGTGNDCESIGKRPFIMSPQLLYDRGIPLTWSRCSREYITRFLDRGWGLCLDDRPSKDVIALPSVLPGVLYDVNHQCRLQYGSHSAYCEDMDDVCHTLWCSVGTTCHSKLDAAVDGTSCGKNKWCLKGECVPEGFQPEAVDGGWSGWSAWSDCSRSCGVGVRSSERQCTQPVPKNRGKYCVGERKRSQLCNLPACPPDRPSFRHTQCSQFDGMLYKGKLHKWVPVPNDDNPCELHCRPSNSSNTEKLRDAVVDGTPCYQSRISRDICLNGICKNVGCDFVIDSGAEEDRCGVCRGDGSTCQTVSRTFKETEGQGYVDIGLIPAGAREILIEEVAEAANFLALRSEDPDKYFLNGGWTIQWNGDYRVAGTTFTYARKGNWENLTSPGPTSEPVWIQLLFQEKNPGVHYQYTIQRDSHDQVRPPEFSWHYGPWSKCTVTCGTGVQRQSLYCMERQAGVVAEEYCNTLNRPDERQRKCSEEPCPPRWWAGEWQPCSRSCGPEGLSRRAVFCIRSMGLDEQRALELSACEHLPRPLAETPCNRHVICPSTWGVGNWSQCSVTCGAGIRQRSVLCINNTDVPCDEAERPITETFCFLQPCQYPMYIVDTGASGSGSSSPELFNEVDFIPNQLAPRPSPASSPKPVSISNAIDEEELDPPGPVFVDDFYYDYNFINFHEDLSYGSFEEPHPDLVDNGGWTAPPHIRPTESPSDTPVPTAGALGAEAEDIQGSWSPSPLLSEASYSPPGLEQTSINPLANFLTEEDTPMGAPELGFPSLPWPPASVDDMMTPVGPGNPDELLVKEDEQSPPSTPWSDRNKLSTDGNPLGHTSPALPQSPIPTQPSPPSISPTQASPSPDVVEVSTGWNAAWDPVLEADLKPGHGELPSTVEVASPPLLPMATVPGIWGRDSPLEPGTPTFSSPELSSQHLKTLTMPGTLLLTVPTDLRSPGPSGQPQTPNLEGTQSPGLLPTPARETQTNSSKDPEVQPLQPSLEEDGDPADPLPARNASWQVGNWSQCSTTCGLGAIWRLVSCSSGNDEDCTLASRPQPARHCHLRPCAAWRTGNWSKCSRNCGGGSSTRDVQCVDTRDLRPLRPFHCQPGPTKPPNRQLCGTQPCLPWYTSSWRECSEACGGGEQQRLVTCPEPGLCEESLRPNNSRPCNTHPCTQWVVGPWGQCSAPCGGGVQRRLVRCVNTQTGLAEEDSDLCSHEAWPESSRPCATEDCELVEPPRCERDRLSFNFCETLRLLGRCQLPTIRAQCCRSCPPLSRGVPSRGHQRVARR
Test: TMT10 TAILS N-terminomics, HUVEC experiment (process replicates, trypsin/AspN digest)
Type: cell-based, human
Conditions: HUVEC TAILS HC; log fold change of N-terminal peptide, Ad-mADAMTS7 WT over Luc
In short: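 Full-length mouse ADAMTS7 (WT or E373Q mutant, C-terminal 3xFLAG) or luciferase was transduced via adenovirus, 50 MOI, into HCA-SMC (SMC1, SMC2) or HUVEC. SMC1: pooled media, technical triplicates 400 ug; SMC2: process triplicates 300 ug; HUVEC: process triplicates 200 ug, bFGF2 10 ng/ml.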

logFC.mWT.over.Luc | Substance
5.05 | ERAP2_718 (ISENLKR; listed as Homo sapiens)
2.21 | ECM1_108 (QEAVPLQK; listed as Homo sapiens)
1.05 | FN1_2113 (FVTHPGY; listed as Homo sapiens)
2.31 | FN1_35 ([code q]MVQPQSPVAVSQSKPGCY; not fully specified (residue 2); listed as Homo sapiens)
3.82 | LOX_125 (FQAGYSTSR; listed as Homo sapiens)
1.80 | FN1_1780 (LQGLRPGSEYTVSVVALH; listed as Homo sapiens)
2.34 | EFEMP1_125_ (VAGPEMQTGR; listed as Homo sapiens)
1.37 | FN1_34 ([code q]QMVQPQSPVAVSQSKPGCY; not fully specified (residue 3); listed as Homo sapiens)
1.47 | FN1_1805 (LIGTQSTAIPAPT; listed as Homo sapiens)
0.96 | FN1_293 (VYQPQPHPQPPPYGHCVT; listed as Homo sapiens)
1.10 | EWSR1_87 (YSQPVQGYGTGAY; listed as Homo sapiens)
1.43 | FN1_1144 (TPGVEYVYTIQVLR; listed as Homo sapiens)
2.34 | FSTL1_290 (LQKHQETA; listed as Homo sapiens)

Substance | logFC.mWT.over.Luc
FN1_607 (SSSGPVEVFIT; listed as Homo sapiens) | 2.31
